For 2 substances, Kd results are on record in patent US20220081480A1.

One assay concerns the target FcRn (UniProt P55899). The assay can be described thus: BLI (Octet), steady state.
Another assay addresses FCγRI (CD64) (UniProt P12314). Nature of the assay: BLI (Octet), antibody on FAB2G tips, kinetic fit. A general note: Biolayer interferometry detects binding as a change in optical thickness at a sensor tip.
The target in the next assay is FCγRIIa (CD32a)_H131 (UniProt P12318). The assay can be described thus: BLI (Octet), steady state.
FCγRIIa (CD32a)_H131, sequence (P12318 36-218 limits assumed): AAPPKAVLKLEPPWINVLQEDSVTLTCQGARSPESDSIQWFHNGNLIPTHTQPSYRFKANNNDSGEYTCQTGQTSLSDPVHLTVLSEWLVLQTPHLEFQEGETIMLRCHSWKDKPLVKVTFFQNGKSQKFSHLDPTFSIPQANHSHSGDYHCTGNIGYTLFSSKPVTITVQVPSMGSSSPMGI

For “hu14.18 IgG2h (FN-AQ, K322A)-delK (antibody)”, the Kd in the assay with FcRn is 0.825 µM.

As for hu14.18-huIgG1-delK (antibody), the Kd worked out at 0.0018 µM with FCγRI (CD64), 0.67 µM in the assay with FCγRIIa (CD32a)_H131 and 0.62 µM with FcRn.

Broadly, the Kd is a measure of binding affinity in units of concentration. Read a low Kd as higher affinity.
